{"source": "paper PMC9482650", "about": "“Quantitative fragmentomics allow affinity mapping of interactomes” (Nature Communications, 2022)", "experiment_in_all_cases": "holdup assay", "design_in_all_cases": "key: below the threshold = too weak to quantify, mostly under pKd 3.1 to 4", "key": {"[1]": {"target": "PICK1, Q9NRD5", "sequence (Q9NRD5 17-115)": "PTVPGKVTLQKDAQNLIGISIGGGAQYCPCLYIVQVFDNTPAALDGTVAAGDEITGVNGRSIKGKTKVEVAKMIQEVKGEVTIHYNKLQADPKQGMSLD"}, "[2]": {"target": "FRMPD2_2, Q68DX3", "sequence (Q68DX3 944-1038)": "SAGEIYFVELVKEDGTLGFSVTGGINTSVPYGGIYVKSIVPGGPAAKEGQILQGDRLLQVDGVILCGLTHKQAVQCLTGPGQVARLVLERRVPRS"}, "[3]": {"target": "T1, TX1BP3, O14907", "T1 sequence (O14907 10-122, limits assumed, looked up)": "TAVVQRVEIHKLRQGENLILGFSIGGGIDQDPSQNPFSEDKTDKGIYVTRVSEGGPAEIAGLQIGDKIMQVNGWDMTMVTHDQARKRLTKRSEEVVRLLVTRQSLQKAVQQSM"}, "[4]": {"target": "Inadl_3, Q8NI35", "sequence (Q8NI35 359-469)": "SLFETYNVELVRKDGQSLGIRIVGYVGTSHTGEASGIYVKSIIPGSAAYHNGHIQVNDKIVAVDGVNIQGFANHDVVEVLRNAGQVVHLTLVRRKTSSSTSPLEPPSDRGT"}, "[5]": {"target": "TJP2_1, Q9UDY2", "sequence (Q9UDY2 24-128)": "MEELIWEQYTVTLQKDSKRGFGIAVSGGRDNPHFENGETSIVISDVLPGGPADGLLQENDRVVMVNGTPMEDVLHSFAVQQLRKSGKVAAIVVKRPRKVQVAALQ"}, "[6]": {"target": "T2, DLG3_1, Q92796", "T2 sequence (Q92796 125-227, limits assumed, looked up)": "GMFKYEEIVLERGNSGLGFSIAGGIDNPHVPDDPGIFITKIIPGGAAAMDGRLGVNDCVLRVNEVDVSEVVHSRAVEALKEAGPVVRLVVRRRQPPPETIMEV"}, "[7]": {"target": "HTRA2, O43464", "sequence (O43464 355-458)": "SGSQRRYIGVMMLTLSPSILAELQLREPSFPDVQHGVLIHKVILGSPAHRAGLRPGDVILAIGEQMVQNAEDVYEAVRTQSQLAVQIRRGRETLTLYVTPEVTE"}, "[8]": {"target": "SCRIB_3, Q14160", "sequence (Q14160 999-1103)": "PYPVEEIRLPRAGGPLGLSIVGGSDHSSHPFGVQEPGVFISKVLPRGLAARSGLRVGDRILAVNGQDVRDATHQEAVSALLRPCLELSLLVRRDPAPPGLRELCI"}, "[9]": {"target": "T3, PARD3B_1, Q8TEW8", "T3 sequence (Q8TEW8 196-299, limits assumed, looked up)": "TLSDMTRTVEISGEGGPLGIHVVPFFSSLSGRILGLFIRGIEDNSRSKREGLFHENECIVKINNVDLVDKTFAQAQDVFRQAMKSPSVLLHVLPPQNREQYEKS"}, "[10]": {"target": "FRMPD2_1, Q68DX3", "sequence (Q68DX3 770-861)": "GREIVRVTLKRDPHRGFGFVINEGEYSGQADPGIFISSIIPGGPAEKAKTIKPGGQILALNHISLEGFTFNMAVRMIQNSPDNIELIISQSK"}, "[11]": {"target": "T4, SNTB1, Q13884", "T4 sequence (Q13884 107-205, limits assumed, looked up)": "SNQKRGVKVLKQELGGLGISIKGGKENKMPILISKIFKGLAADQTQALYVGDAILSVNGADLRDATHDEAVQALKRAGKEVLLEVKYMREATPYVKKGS"}, "[12]": {"target": "T5, LNX2_2, Q8N448", "T5 sequence (Q8N448 334-432, limits assumed, looked up)": "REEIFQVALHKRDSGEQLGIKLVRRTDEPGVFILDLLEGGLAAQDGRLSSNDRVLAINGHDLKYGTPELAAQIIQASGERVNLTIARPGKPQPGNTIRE"}, "[13]": {"target": "MAST2, Q6P0Q8", "sequence (Q6P0Q8 1099-1202)": "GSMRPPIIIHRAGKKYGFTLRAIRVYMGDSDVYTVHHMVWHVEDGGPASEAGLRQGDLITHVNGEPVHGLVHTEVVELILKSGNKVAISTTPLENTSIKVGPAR"}, "[14]": {"target": "T6, FRMPD1, Q5SYB0", "T6 sequence (Q5SYB0 52-145, limits assumed, looked up)": "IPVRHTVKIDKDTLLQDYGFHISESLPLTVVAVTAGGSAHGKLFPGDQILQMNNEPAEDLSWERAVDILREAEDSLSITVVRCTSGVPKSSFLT"}, "[15]": {"target": "MAGI2_4, Q86UL8", "sequence (Q86UL8 772-865)": "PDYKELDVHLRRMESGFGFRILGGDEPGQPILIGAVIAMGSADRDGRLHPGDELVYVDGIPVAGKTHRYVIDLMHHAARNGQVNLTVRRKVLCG"}, "[16]": {"target": "MAST1, Q9Y2H9", "sequence (Q9Y2H9 962-1065)": "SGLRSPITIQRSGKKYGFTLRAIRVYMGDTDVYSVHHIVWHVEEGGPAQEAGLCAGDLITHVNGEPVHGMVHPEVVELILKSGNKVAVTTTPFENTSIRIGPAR"}, "[17]": {"target": "DLG4_1, P78352", "sequence (P78352 62-152)": "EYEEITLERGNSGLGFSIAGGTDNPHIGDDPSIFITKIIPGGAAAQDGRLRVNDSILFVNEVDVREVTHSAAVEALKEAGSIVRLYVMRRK"}, "[18]": {"target": "MAGI2_5, Q86UL8", "sequence (Q86UL8 915-1017)": "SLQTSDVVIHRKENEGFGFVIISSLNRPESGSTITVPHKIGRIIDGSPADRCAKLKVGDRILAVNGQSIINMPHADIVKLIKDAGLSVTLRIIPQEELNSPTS"}, "[19]": {"target": "T7, RAPGEF6, Q8TEU7", "T7 sequence (Q8TEU7 525-625, limits assumed, looked up)": "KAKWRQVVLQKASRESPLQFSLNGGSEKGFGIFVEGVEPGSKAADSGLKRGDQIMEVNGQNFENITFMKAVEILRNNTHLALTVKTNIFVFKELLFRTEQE"}, "[20]": {"target": "PTPN3, P26045", "sequence (P26045 505-587)": "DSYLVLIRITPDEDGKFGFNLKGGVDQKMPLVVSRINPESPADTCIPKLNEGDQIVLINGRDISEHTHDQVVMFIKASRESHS"}, "[21]": {"target": "Inadl_6, Q8NI35", "sequence (Q8NI35 1058-1167)": "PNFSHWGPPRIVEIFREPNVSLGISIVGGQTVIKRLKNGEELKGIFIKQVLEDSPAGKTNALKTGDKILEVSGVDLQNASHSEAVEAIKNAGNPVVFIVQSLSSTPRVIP"}, "[22]": {"target": "T8, GRIP1_5, Q9Y3R0", "T8 sequence (Q9Y3R0 568-668, limits assumed, looked up)": "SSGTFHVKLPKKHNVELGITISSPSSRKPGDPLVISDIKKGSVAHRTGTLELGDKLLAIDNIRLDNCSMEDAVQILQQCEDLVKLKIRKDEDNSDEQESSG"}, "[23]": {"target": "T9, MPDZ_12, O75970", "T9 sequence (O75970 1857-1958, limits assumed, looked up)": "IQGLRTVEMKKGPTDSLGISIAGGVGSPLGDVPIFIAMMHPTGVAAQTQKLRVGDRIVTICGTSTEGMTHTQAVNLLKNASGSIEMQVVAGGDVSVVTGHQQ"}, "[24]": {"target": "Inadl_8, Q8NI35", "sequence (Q8NI35 1425-1530)": "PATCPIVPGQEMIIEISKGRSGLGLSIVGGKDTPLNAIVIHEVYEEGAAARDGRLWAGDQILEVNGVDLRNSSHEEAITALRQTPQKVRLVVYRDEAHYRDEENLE"}, "[25]": {"target": "GORASP2, Q9H8Y8"}, "[26]": {"target": "T10, DLG3_2, Q92796", "T10 sequence (Q92796 221-321, limits assumed, looked up)": "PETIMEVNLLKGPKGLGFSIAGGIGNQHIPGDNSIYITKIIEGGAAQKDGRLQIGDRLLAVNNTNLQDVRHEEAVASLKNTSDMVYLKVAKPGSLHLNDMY"}, "[27]": {"target": "GOPC, Q9HD26"}, "[28]": {"settings": "plain residues with an end cap or a label only (N-terminal biotin on a linker: ado-ado)"}, "[29]": {"settings": "modified: phospho on T at position -1 from the C-terminal residue"}}, "data": [{"binder": "GQSVDLVFPV", "note": "[AKIP1, Q9NQ31]", "values": [{"measurement": "pKd", "setting": "[1]; [28]", "value": "below the threshold"}, {"measurement": "pKd", "setting": "[2]; [28]", "value": "below the threshold"}, {"measurement": "pKd", "setting": "[3]; [28]", "value": "below the threshold"}, {"measurement": "pKd", "setting": "[4]; [28]", "value": "below the threshold"}, {"measurement": "pKd", "setting": "[5]; [28]", "value": "below the threshold"}, {"measurement": "pKd", "setting": "[6]; [28]", "value": "below the threshold"}, {"measurement": "pKd", "setting": "[7]; [28]", "value": 3.54}, {"measurement": "pKd", "setting": "[8]; [28]", "value": "below the threshold"}, {"measurement": "pKd", "setting": "[9]; [28]", "value": 3.8}, {"measurement": "pKd", "setting": "[10]; [28]", "value": "below the threshold"}, {"measurement": "pKd", "setting": "[11]; [28]", "value": "below the threshold"}, {"measurement": "pKd", "setting": "[12]; [28]", "value": 3.87}, {"measurement": "pKd", "setting": "[13]; [28]", "value": 4.15}, {"measurement": "pKd", "setting": "[14]; [28]", "value": "below the threshold"}, {"measurement": "pKd", "setting": "[15]; [28]", "value": "below the threshold"}, {"measurement": "pKd", "setting": "[16]; [28]", "value": 4.1}, {"measurement": "pKd", "setting": "[17]; [28]", "value": 3.6}, {"measurement": "pKd", "setting": "[18]; [28]", "value": "below the threshold"}, {"measurement": "pKd", "setting": "[19]; [28]", "value": "below the threshold"}, {"measurement": "pKd", "setting": "[20]; [28]", "value": "below the threshold"}, {"measurement": "pKd", "setting": "[21]; [28]", "value": "below the threshold"}, {"measurement": "pKd", "setting": "[22]; [28]", "value": "below the threshold"}, {"measurement": "pKd", "setting": "[23]; [28]", "value": 3.58}, {"measurement": "pKd", "setting": "[24]; [28]", "value": "below the threshold"}, {"measurement": "pKd", "setting": "[25]; [28]", "value": 4.37}, {"measurement": "pKd", "setting": "[26]; [28]", "value": "below the threshold"}, {"measurement": "pKd", "setting": "[27]; [28]", "value": "below the threshold"}]}, {"binder": "RRVRKLPSTTL", "note": "[RPS6KA1_-1P, Q15418]", "values": [{"measurement": "pKd", "setting": "[1]; [29]", "value": 3.49}, {"measurement": "pKd", "setting": "[2]; [29]", "value": 3.47}, {"measurement": "pKd", "setting": "[3]; [29]", "value": 3.87}, {"measurement": "pKd", "setting": "[4]; [29]", "value": 3.76}, {"measurement": "pKd", "setting": "[5]; [29]", "value": "below the threshold"}, {"measurement": "pKd", "setting": "[6]; [29]", "value": 3.57}, {"measurement": "pKd", "setting": "[7]; [29]", "value": 3.49}, {"measurement": "pKd", "setting": "[8]; [29]", "value": 4.61}, {"measurement": "pKd", "setting": "[9]; [29]", "value": 4.04}, {"measurement": "pKd", "setting": "[10]; [29]", "value": 3.33}, {"measurement": "pKd", "setting": "[11]; [29]", "value": 3.91}, {"measurement": "pKd", "setting": "[12]; [29]", "value": "below the threshold"}, {"measurement": "pKd", "setting": "[13]; [29]", "value": 5.17}, {"measurement": "pKd", "setting": "[14]; [29]", "value": "below the threshold"}, {"measurement": "pKd", "setting": "[15]; [29]", "value": 4.32}, {"measurement": "pKd", "setting": "[16]; [29]", "value": 4.5}, {"measurement": "pKd", "setting": "[17]; [29]", "value": 3.8}, {"measurement": "pKd", "setting": "[18]; [29]", "value": 3.56}, {"measurement": "pKd", "setting": "[19]; [29]", "value": 3.38}, {"measurement": "pKd", "setting": "[20]; [29]", "value": 4.48}, {"measurement": "pKd", "setting": "[21]; [29]", "value": 3.52}, {"measurement": "pKd", "setting": "[22]; [29]", "value": "below the threshold"}, {"measurement": "pKd", "setting": "[23]; [29]", "value": "below the threshold"}, {"measurement": "pKd", "setting": "[24]; [29]", "value": 3.57}, {"measurement": "pKd", "setting": "[25]; [29]", "value": 3.76}, {"measurement": "pKd", "setting": "[26]; [29]", "value": 3.89}, {"measurement": "pKd", "setting": "[27]; [29]", "value": 4.66}]}]}
